Positions count from the first letter of the chain named. Names may count otherwise.
Assays:
[1] = target: T1, Recombinant Human DLL4 (R&D Systems Cat#1506-D4/CF) (human, UniProt Q9NR61 27-524); test: ECL multispot (MSD), antigen spotted; blank spot of this well 229
T1 construct: Bought recombinant protein; also called delta-like protein 4; rHuman DLL4

[2] = target: T2, rHuman ErbB2/Fc Chimera, CF (R&D Systems Cat#1129-ER) (human, UniProt P04626 23-652); test: as above
T2 construct: Bought protein; also called human epidermal growth factor 2 receptor

[3] = target: T3, rHuman EGF R/Fc Chimera, CF (R&D Systems Cat#344-ER) (human, UniProt P00533 25-645); test: as above
T3 construct: Bought protein; also called epidermal growth factor receptor

[4] = target: T4, rHuman Erythropoietin R/Fc Chimera, CF (R&D Systems Cat#963-ER) (human, UniProt P19235 25-250); test: as above
T4 construct: Bought protein; also called EPO R; EPO R/Fc
T4 sequence (looked up): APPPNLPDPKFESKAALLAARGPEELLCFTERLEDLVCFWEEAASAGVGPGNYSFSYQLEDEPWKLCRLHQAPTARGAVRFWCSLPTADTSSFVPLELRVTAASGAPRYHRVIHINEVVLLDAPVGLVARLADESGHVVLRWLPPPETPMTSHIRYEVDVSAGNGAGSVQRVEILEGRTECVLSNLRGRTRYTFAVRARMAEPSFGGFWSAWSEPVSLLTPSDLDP

[5] = target: T5, rHuman HGF R/c-MET/Fc Chimera, CF (R&D Systems Cat#358-MT/CF) (human, UniProt P08581 25-932); test: as above
T5 construct: Bought protein; also called HGF R/Fc; hepatocyte growth factor receptor

[6] = target: T6, rHuman Notch-1/Fc Chimera, CF (R&D Systems Cat#3647-TK) (human, UniProt P46531 19-526); test: as above
T6 construct: Bought protein

[7] = target: T7, rHuman P-Cadherin/Fc Chimera, CF (R&D Systems Cat#861-PC) (human, UniProt P22223 108-654); test: as above
T7 construct: Bought protein

[8] = target: T8, rHuman CD44/Fc Chimera, CF (R&D Systems Cat#3660-CD) (human, UniProt P16070 21-220); test: as above
T8 construct: Bought protein

[9] = target: T9, rHuman IGF-1 sR, CF (R&D Systems Cat#391-GR) (human, UniProt P08069 31-932); test: as above
T9 construct: Bought soluble receptor; also called insulin-like growth factor-1 soluble receptor

[10] = target: T1, Recombinant Human DLL4 (R&D Systems …); test: ECL multispot (MSD), antigen spotted; blank spot of this well 287
[11] = target: T2, rHuman ErbB2/Fc Chimera, CF (R&D …); test: as above
[12] = target: T3, rHuman EGF R/Fc Chimera, CF (R&D …); test: as above
[13] = target: T4, rHuman Erythropoietin R/Fc Chimera, CF …; test: as above
[14] = target: T5, rHuman HGF R/c-MET/Fc Chimera, CF (R&D …); test: as above
[15] = target: T6, rHuman Notch-1/Fc Chimera, CF (R&D …); test: as above
[16] = target: T7, rHuman P-Cadherin/Fc Chimera, CF (R&D …); test: as above
[17] = target: T8, rHuman CD44/Fc Chimera, CF (R&D Systems …); test: as above
[18] = target: T9, rHuman IGF-1 sR, CF (R&D Systems …); test: as above
[19] = target: T10, rHuman Notch-1/Fc Chimera, CF (R&D Systems Cat#3647-TK) (human); test: ECL multispot (MSD) assay, antigen spotted on plate, Fab in solution; blank spot of this well 271
T10 chain: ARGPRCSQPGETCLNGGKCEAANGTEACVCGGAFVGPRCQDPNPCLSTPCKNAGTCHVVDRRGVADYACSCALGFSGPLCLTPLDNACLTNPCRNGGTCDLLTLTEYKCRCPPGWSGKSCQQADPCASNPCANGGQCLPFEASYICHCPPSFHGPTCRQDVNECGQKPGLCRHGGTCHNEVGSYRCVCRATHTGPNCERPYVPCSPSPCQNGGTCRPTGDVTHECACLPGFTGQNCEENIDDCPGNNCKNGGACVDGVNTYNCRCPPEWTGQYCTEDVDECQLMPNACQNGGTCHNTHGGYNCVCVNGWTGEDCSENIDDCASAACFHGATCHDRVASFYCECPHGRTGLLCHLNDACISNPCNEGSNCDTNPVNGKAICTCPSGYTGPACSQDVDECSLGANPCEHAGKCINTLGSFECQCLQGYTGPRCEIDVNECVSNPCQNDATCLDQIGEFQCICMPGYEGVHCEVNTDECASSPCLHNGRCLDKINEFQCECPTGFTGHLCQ

[20] = target: T11, rHuman IGF-1 sR (insulin-like growth factor-1 soluble receptor), CF (R&D Systems Cat#391-GR) (human, UniProt P08069 31-932); test: as above
T11 construct: Bought recombinant soluble receptor

[21] = target: T12, rHuman HGF R/c-MET/Fc Chimera, CF (R&D Systems Cat#358-MT/CF) (human, UniProt P08581 25-932); test: as above
[22] = target: T13, Recombinant Human DLL4 (R&D Systems Cat#1506-D4/CF) (human, UniProt Q9NR61 27-524); test: as above
T13 construct: Bought recombinant protein; also called delta-like protein 4; rHuman DLL4

[23] = target: T14, rHuman Erythropoietin R/Fc Chimera, CF (R&D Systems Cat#963-ER) (human, UniProt P19235 25-250); test: as above
[24] = target: T15, rHuman P-Cadherin/Fc Chimera, CF (R&D Systems Cat#861-PC) (human, UniProt P22223 108-654); test: as above
[25] = target: T16, rHuman CD44/Fc Chimera, CF (R&D Systems Cat#3660-CD) (human, UniProt P16070 21-220); test: as above
[26] = target: T10, rHuman Notch-1/Fc Chimera, CF (R&D …); test: ECL multispot (MSD) assay, antigen spotted on plate, Fab in solution; blank spot of this well 338
[27] = target: T12, rHuman HGF R/c-MET/Fc Chimera, CF (R&D …); test: as above
[28] = target: T14, rHuman Erythropoietin R/Fc Chimera, CF …; test: as above
[29] = target: T15, rHuman P-Cadherin/Fc Chimera, CF (R&D …); test: as above
[30] = target: T16, rHuman CD44/Fc Chimera, CF (R&D Systems …); test: as above
[31] = target: T1, Recombinant Human DLL4 (R&D Systems …); test: ECL multispot (MSD), antigen spotted; blank spot of this well 261
[32] = target: T2, rHuman ErbB2/Fc Chimera, CF (R&D …); test: as above
[33] = target: T3, rHuman EGF R/Fc Chimera, CF (R&D …); test: as above
[34] = target: T4, rHuman Erythropoietin R/Fc Chimera, CF …; test: as above
[35] = target: T5, rHuman HGF R/c-MET/Fc Chimera, CF (R&D …); test: as above
[36] = target: T6, rHuman Notch-1/Fc Chimera, CF (R&D …); test: as above
[37] = target: T7, rHuman P-Cadherin/Fc Chimera, CF (R&D …); test: as above
[38] = target: T8, rHuman CD44/Fc Chimera, CF (R&D Systems …); test: as above
[39] = target: T9, rHuman IGF-1 sR, CF (R&D Systems …); test: as above

B1: Fab VH1-46_IGHD6-6*01_IGHJ1*01 S102A/S103P/S104F (APF) & L6_IGKJ1*01 (Fab, V domains shown)
VH: QVQLVQSGAEVKKPGASVKVSCKASGYTFTSYYMHWVRQAPGQGLEWMGIINPSGGSTSYAQKFQGRVTMTRDTSTSTVYMELSSLRSEDTAVYYCAREEYAPFSAEYFQHWGQGTLVTVSS
VL: not shown
notes: Fab made in E. coli: VH cloned into Plasmid A (CH1, His6 and Flag tags), VL into Plasmid C (kappa CL); Template of the light chain NNK mutants; also called APF / parent; H:APF & L:wt
Question: Which ECL signal [1] does the source give for B1 here?
Answer: 2580

Question: And the ECL signal [2]?
Answer: 331

Question: And the ECL signal [3]?
Answer: 363

Question: What about the ECL signal [4] of the same binder?
Answer: 252

Question: What about the ECL signal [5] of the same binder?
Answer: 307

Question: And the ECL signal [6]?
Answer: 398

Question: And the ECL signal [7]?
Answer: 189

Question: What about the ECL signal [8] of the same binder?
Answer: 223

Question: What about the ECL signal [9] of the same binder?
Answer: 223

Question: And the ECL signal [10]?
Answer: 2440

Question: And the ECL signal [11]?
Answer: 317

Question: And the ECL signal [12]?
Answer: 226

Question: What about the ECL signal [13] of the same binder?
Answer: 319

Question: And the ECL signal [14]?
Answer: 344

Question: And the ECL signal [15]?
Answer: 358

Question: And the ECL signal [16]?
Answer: 250

Question: What about the ECL signal [17] of the same binder?
Answer: 205

Question: What about the ECL signal [18] of the same binder?
Answer: 162

B2: Fab VH1-46_IGHD6-6*01_IGHJ1*01 S102A/S103P/S104F (APF) & L6_IGKJ1*01 S92N (Fab, V domains shown)
VH: B1 VH
VL: EIVLTQSPATLSLSPGERATLSCRASQSVSSYLAWYQQKPGQAPRLLIYDASNRATGIPARFSGSGSGTDFTLTISSLEPEDFAVYYCQQRNNWPPWTFGQGTKVEIKR
notes: Fab made in E. coli (heavy chain in plasmid A with CH1, His6 and Flag tags; kappa light chain in plasmid C); also called APF / S92N
Question: Which ECL signal [19] does the source give for B2 here?
Answer: 193

Question: And the ECL signal [20]?
Answer: 211

Question: What about the ECL signal [21] of the same binder?
Answer: 405

Question: What about the ECL signal [22] of the same binder?
Answer: 2090

Question: And the ECL signal [23]?
Answer: 304

Question: What about the ECL signal [24] of the same binder?
Answer: 240

Question: What about the ECL signal [25] of the same binder?
Answer: 316

B3: Fab VH1-46_IGHD6-6*01_IGHJ1*01 S102A/S103P/S104F (APF) & L6_IGKJ1*01 S92C (Fab, V domains shown)
VH: B1 VH
VL: B2 VL with N92C
notes: Fab made in E. coli (heavy chain in plasmid A with CH1, His6 and Flag tags; kappa light chain in plasmid C); also called APF / S92C
Question: What does the source list for B3?
Answer: ECL signal [26]: 125; ECL signal [27]: 335; ECL signal [28]: 302; ECL signal [29]: 265; ECL signal [30]: 156

B4: Fab VH1-46_IGHD6-6*01_IGHJ1*01 S102A/S103P/S104F (APF) & L6_IGKJ1*01 R91Q (Fab, V domains shown)
VH: B1 VH
VL: B2 VL with R91Q, N92S
notes: Fab made in E. coli: VH cloned into Plasmid A (CH1, His6 and Flag tags), VL into Plasmid C (kappa CL); also called APF / R91Q
Question: What does the source list for B4?
Answer: ECL signal [31]: 817; ECL signal [32]: 234; ECL signal [33]: 290; ECL signal [34]: 263; ECL signal [35]: 325; ECL signal [36]: 229; ECL signal [37]: 314; ECL signal [38]: 268; ECL signal [39]: 210

Source: patent publication US20120316071A1 (published 2012)
